Measured values: article PMC10583499

Biological target: human NRP2 (v2, NM_003872.3), untagged, stably overexpressed on Expi293F cells (Expi293F-hNRP2) (human) (UniProt O60462)
Assay: flow cytometry on cells

EC50: 5.7 nM
Substance: human Sema3F (amino acids 19 to 779), N-terminal 6xHis-Myc tag, R583A R586A (from UniProt Q13275 19-779) (ligand)
